Data set [1] in a line: nESI-MS relative populations of oligomeric forms. Particulars: 150 mM ammonium acetate. Format: physicochemical, human. How it is done:
Prior to MS analysis, samples were buffer exchanged into 150 mM ammonium acetate, pH 7.4, using Micro Bio-spin 6 columns (Bio-Rad, Digilab Division, Cambridge, MA, USA). For all the experiments protein concentrations ranging from 6 to 18 µM were used. In the case of the substrate binding experiments, proteins were analyzed in the presence of a 1: 1 molar ratio of the NR peptide; this substrate concentration, lower than in the SEC experiments, was chosen to ensure adequate resolution of the various charge state series, which is critical for unambiguous assignment of substrate-bound states. Due to suppression effects during nESI ionization, a relatively limited set of molar ratios could be investigated by in this way.
nESI-MS spectra were obtained according to a previously published protocol on an orthogonal time-of-flight mass spectrometer with a Z-spray source (LCT, Waters, Manchester, UK) in positive ion mode using the following parameters: capillary voltage, 1500 V; sample cone voltage, 120 V (unless otherwise specified); extraction cone voltage, 1V; and ion transfer stage pressure, 8.8 mbar. Spectra were calibrated externally using a 33 mg/ml solution of cesium iodide. Data were acquired and processed with MassLynx software (Waters, Manchester, UK), and are shown with minimal smoothing and without background subtraction. The relative abundances of the different oligomeric states were estimated from the intensities of the most abundant charge states for each construct and are expressed as a percentage of the total intensity.

Data set [2] can be described thus: Analytical SEC relative populations of oligomeric forms. Format: physicochemical, human. The note with it: for Dimer population / Monomer population / Total oligomer population: Superdex 75, 4 °C, 50 mM Tris pH 7.4, 150 mM KCl. How it is done: Analytical SEC was performed at 4 °C using a Superdex 75 10/300 GL column (GE Healthcare LifeSciences, Little Chalfont, U.K.), which had previously been calibrated using a mixture of standard proteins (Gel Filtration LMW Calibration Kit; GE Healthcare LifeSciences, Little Chalfont, U.K.). Typically, samples of the various constructs contained 70 µM of protein in 50 mM Tris buffer at pH 7.4, with 150 mM KCl, 5 mM MgCl2 and were incubated for 15 min (unless otherwise specified) at room temperature before being loaded onto the column for analysis. To evaluate the reversibility of the oligomerization process, the different elution peaks obtained for each protein variant were subsequently analyzed after concentrating the different fractions using AmiconUltra-0.5, Ultracel-3 Membrane, 3 kDa (Millipore, Bedford, MA, USA). A similar analysis was also performed at 6 µM concentration for all the protein variants to allow for a direct comparison between the results obtained by SEC and MS experiments.
The influence of substrate binding on the oligomerization properties of all the variants was examined by using the well-characterized Hsp70 substrate, the NR peptide (NRLLLTG, Genemed Synthesis Inc., San Antonio, TX, USA). A 14-fold excess of the peptide was added in each case to a fresh protein sample, incubated for 1 h at room temperature, unless otherwise specified, and then loaded onto the Superdex 75 10/300 GL column for analysis. The relative quantities of the different protein species were estimated by analysing the chromatographic profile using a Gaussian function for each elution peak (OriginPro 8, Originlab, Northampton, MA, USA) and measuring the relative area under each peak.

Setting [3] is: 6-15 µM protein, pH 7.4, estimated error 5% (SD of 3-4 independent experiments).
Setting [4] is: 70 µM protein, 5 mM MgCl2, 15 min at room temperature, estimated error 3.5% (SD of 3-4 independent experiments).
[5] abbreviates: 6-15 µM protein, 5 mM MgCl2, estimated error 3.5% (SD of 3-4 independent experiments).

Where “and” joins values, the source holds several entries; their conditions need not be identical. Identical values can stand only once.

For “SBD641: truncated human Hsp70 (384-641), full-length SBD with interdomain linker”, in data set [1] (setting [3]), the Dimer population was 40%; the Monomer population is on record as 46%; the Total oligomer population is > 50% and 54%; the Trimer population is reported as 12%. In addition, the Tetramer population in data set [1] (low μM protein, pH 7.4) is recorded as 2%. Further, in data set [2] (setting [4]), the Dimer population is 55%, the Monomer population was 23% and the Total oligomer population is reported as 77%. Moreover, in data set [2] (setting [5]), the Dimer population is recorded as 44%; the Monomer population was 37%; the Total oligomer population was > 50% and 63%. The “Monomeric fraction, native protein” value in data set [2] (native SBD641, comparison with refolded) was found to be 37%. Moreover, the “Monomeric fraction, refolded protein” value in data set [2] (refolded after thermal denaturation) came to 71%.

The values above are taken from PMC3696110, “Hsp70 Oligomerization Is Mediated by an Interaction between the Interdomain Linker and the Substrate-Binding Domain” (PLoS ONE, 2013).
